Measured values: publication PMC4361584, “Glyceraldehyde 3-Phosphate Dehydrogenase-Telomere Association Correlates with Redox Status in Trypanosoma cruzi”

Tests used:
[1] = target: T1, rTcGAPDH (glyceraldehyde 3-phosphate dehydrogenase) (Trypanosoma cruzi, UniProt P22513 1-359); assay: EMSA; supershift with anti-GAPDH serum; 1x from 5x buffer: 20 mM HEPES pH 6.0, 1 mM EDTA, 10 mM (NH4)2SO4, 1 mM DTT, 0.2% Tween 20, 30 mM KCl; 0.1 ug poly-lysine, 1 ug poly[d(I-C)], 20 ul, on ice 15 min; 6% native gel, 0.25x TBE; details: protein: recombinant; tags: His-tag; chain copies: 4; label: DIG-11-ddUTP at 3' end (terminal transferase); single strand
[2] = target: T1, rTcGAPDH (glyceraldehyde 3-phosphate …); assay: EMSA; 50 uM GAPDH; 1x from 5x buffer: 20 mM HEPES pH 6.0, 1 mM EDTA, 10 mM (NH4)2SO4, 1 mM DTT, 0.2% Tween 20, 30 mM KCl; 0.1 ug poly-lysine, 1 ug poly[d(I-C)], 20 ul, on ice 15 min; 6% native gel, 0.25x TBE; details: protein: recombinant; tags: His-tag; chain copies: 4; label: DIG-11-ddUTP at 3' end; single strand

T1 sequence (P22513 whole entry): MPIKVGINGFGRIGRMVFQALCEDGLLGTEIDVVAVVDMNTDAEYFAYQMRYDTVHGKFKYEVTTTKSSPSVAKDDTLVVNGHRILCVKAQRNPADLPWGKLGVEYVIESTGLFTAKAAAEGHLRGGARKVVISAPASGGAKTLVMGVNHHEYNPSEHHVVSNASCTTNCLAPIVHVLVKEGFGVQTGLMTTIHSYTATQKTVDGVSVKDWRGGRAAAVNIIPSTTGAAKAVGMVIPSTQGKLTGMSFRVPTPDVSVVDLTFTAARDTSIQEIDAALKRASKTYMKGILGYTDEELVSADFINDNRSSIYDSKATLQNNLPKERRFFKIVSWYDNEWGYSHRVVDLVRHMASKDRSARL

| Binder | binding result [1] | binding result [2] |
| --- | --- | --- |
| TTAGGGTTAGGGTTAGGGTTAGGGTTAGGGTTAGGG (ssDNA) [ss (TTAGGG)6] | binds |  |
| TTAGGG (ssDNA) [ss (TTAGGG)1] |  | binds |
| TTAGGGTTAGGGTTAGGG (ssDNA) [ss (TTAGGG)3] |  | binds |
